Measurements published in the supplement of paper PMC11246515.
± gives the standard deviation of the averaged measurements.

Assay: total protein half-life in vivo (active degradation + dilution); higher = more stable protein
[1] = E. coli NCM3722 delta-clpP delta-lon delta-hslV, growth: N-lim chemostat, doubling time 6 h
[2] = E. coli NCM3722 delta-hslV, growth: N-lim chemostat, doubling time 6 h
[3] = E. coli NCM3722 delta-lon, growth: N-lim chemostat, doubling time 6 h
[4] = E. coli NCM3722 delta-smpB, growth: N-lim chemostat, doubling time 6 h
[5] = wild type E. coli NCM3722, growth: C-lim chemostat, doubling time 3 h
[6] = wild type E. coli NCM3722, growth: C-lim chemostat, doubling time 6 h
[7] = wild type E. coli NCM3722, growth: N-lim chemostat, doubling time 6 h
[8] = wild type E. coli NCM3722, growth: N-lim chemostat, doubling time 12 h
[9] = wild type E. coli NCM3722, growth: P-lim chemostat, doubling time 6 h
[10] = wild type E. coli NCM3722, growth: P-lim chemostat, doubling time 12 h
[11] = E. coli NCM3722 delta-clpP, growth: N-lim chemostat, doubling time 6 h
[12] = wild type E. coli NCM3722, growth: C-lim chemostat, doubling time 12 h

Row | Sequence | total protein half-life in vivo [1] [h] | total protein half-life in vivo [2] [h] | total protein half-life in vivo [3] [h] | total protein half-life in vivo [4] [h] | total protein half-life in vivo [5] [h] | total protein half-life in vivo [6] [h] | total protein half-life in vivo [7] [h] | total protein half-life in vivo [8] [h] | total protein half-life in vivo [9] [h] | total protein half-life in vivo [10] [h] | total protein half-life in vivo [11] [h] | total protein half-life in vivo [12] [h]
1 | MIKNLPQIVLLNIVGLALFLSWYIPVNHGFWLPIDADIFYFFNQKLVESKAFLWLVALTNNRAFDGCSLLAMGMLMLSFWLKENAPGRRRIVIIGLVMLLTAVVLNQLGQALIPVKRASPTLTFTDINRVSELLSVPTKDASRDSFPGDHGMMLLIFSAFMWRYFGKVAGLIALIIFVVFAFPRVMIGAHWFTDIIVGSMTVILIGLPWVLLTPLSDRLITFFDKSLPGKNKHFQNK | 6.44 ± 0.069 | 5.96 | 5.5 ± 0.33 | 4.98 ± 0.75 | > 4 | 5.87 ± 0.17 | 5.91 | 9.71 | 5.76 ± 0.068 | 14.4 | – | –
2 | MRKIKIGLALGSGAARGWSHIGVINALKKVGIEIDIVAGCSIGSLVGAAYACDRLSALEDWVTSFSYWDVLRLMDLSWQRGGLLRGERVFNQYREIMPETEIENCSRRFAAVATNLSTGRELWFTEGDLHLAIRASCSIPGLMAPVAHNGYWLVDGAVVNPIPISLTRALGADIVIAVDLQHDAHLMQQDLLSFNVSEENSENGDSLPWHARLKERLGSITTRRAVTAPTATEIMTTSIQVLENRLKRNRMAGDPPDILIQPVCPQISTLDFHRAHAAIAAGQLAVERKMDELLPLVRTNI [P0AFR0] | 5 ± 0.29 | 4.923 ± 0.045 | 5.26 | 4.51 ± 0.14 | 2.951 ± 0.017 | 5.25 ± 0.36 | 5.61 ± 0.09 | 8.89 ± 1.5 | 5.659 ± 0.02 | 11.7 ± 0.5 | 4.67 ± 0.2 | 10.6 ± 1.2
3 | MAGWHLDTKMAQDIVARTMRIIDTNINVMDARGRIIGSGDRERIGELHEGALLVLSQGRVVDIDDAVARHLHGVRQGINLPLRLEGEIVGVIGLTGEPENLRKYGELVCMTAEMMLEQSRLMHLLAQDSRLREELVMNLIQAEENTPALTEWAQRLGIDLNQPRVVAIVEVDSGQLGVDSAMAELQQLQNALTTPERNNLVAIVSLTEMVVLKPALNSFGRWDAEDHRKRVEQLITRMKEYGQLRFRVSLGNYFTGPGSIARSYRTAKTTMVVGKQRMPESRCYFYQDLMLPVLLDSLRGDWQANELARPLARLKTMDNNGLLRRTLAAWFRHNVQPLATSKALFIHRNTLEYRLNRISELTGLDLGNFDDRLLLYVALQLDEER | – | – | – | – | 2.67 ± 0.12 | 6.76 | – | – | – | – | – | 10.2 ± 3
4 | MKIKTRFAPSPTGYLHVGGARTALYSWLFARNHGGEFVLRIEDTDLERSTPEAIEAIMDGMNWLSLEWDEGPYYQTKRFDRYNAVIDQMLEEGTAYKCYCSKERLEALREEQMAKGEKPRYDGRCRHSHEHHADDEPCVVRFANPQEGSVVFDDQIRGPIEFSNQELDDLIIRRTDGSPTYNFCVVVDDWDMEITHVIRGEDHINNTPRQINILKALKAPVPVYAHVSMINGDDGKKLSKRHGAVSVMQYRDDGYLPEALLNYLVRLGWSHGDQEIFTREEMIKYFTLNAVSKSASAFNTDKLLWLNHHYINALPPEYVATHLQWHIEQENIDTRNGPQLADLVKLLGERCKTLKEMAQSCRYFYEDFAEFDADAAKKHLRPVARQPLEVVRDKLAAITDWTAENVHHAIQATADELEVGMGKVGMPLRVAVTGAGQSPALDVTVHAIGKTRSIERINKALDFIAERENQQ | 5.79 ± 0.64 | 5.5 ± 0.56 | 5.42 ± 0.13 | 5.06 ± 0.56 | 3.22 ± 0.47 | 6.28 ± 0.22 | 5.34 ± 0.34 | 9.3 ± 0.16 | 6.23 ± 0.25 | 12.2 ± 0.93 | 5.2 ± 0.2 | 12.5 ± 0.98
5 | MQFEKMITEGSNTASAEIDRVSTLEMCRIINDEDKTVPLAVERVLPDIAAAIDVIHAQVSGGGRLIYLGAGTSGRLGILDASECPPTYGVKPGLVVGLIAGGEYAIQHAVEGAEDSREGGVNDLKNINLTAQDVVVGIAASGRTPYVIAGLEYARQLGCRTVGISCNPGSAVSTTAEFAITPIVGAEVVTGSSRMKAGTAQKLVLNMLSTGLMIKSGKVFGNLMVDVVATNEKLHVRQVNIVKNATGCSAEQAEAALIACERNCKTAIVMVLKNLDAAEAKKRLDQHGGFIRQVLDKE | 5.64 ± 0.068 | 5.96 ± 1.8 | 4.88 ± 0.37 | 4.08 ± 0.35 | 3.04 ± 0.084 | 5.28 ± 0.059 | 4.37 ± 0.25 | 8.74 ± 0.62 | 5.92 ± 1.1 | 9.65 ± 0.26 | 4.82 ± 0.37 | 8.41 ± 0.19
6 | MENNRNFPARQFHSLTFFAGLCIGITPVAQALAAEGQTNADDTLVVEASTPSLYAPQQSADPKFSRPVADTTRTMTVISEQVIKDQGATNLTDALKNVPGVGAFFAGENGNSTTGDAIYMRGADTSNSIYIDGIRDIGSVSRDTFNTEQVEVIKGPSGTDYGRSAPTGSINMISKQPRNDSGIDASASIGSAWFRRGTLDVNQVIGDTTAVRLNVMGEKTHDAGRDKVKNERYGVAPSVAFGLGTANRLYLNYLHVTQHNTPDGGIPTIGLPGYSAPSAGTAALNHSGKVDTHNFYGTDSDYDDSTTDTATMRFEHDINDNTTIRNTTRWSRVKQDYLMTAIMGGASNITQPTSDVNSWTWSRTANTKDVSNKILTNQTNLTSTFYTGSIGHDVSTGVEFTRETQTNYGVNPVTLPAVNIYHPDSSIHPGGLTRNGANANGQTDTFAIYAFDTLQITRDFELNGGIRLDNYHTEYDSATACGGSGRGAITCPTGVAKGSPVTTVDTAKSGNLMNWKAGALYHLTENGNVYINYAVSQQPPGGNNFALAQSGSGNSANRTDFKPQKANTSEIGTKWQVLDKRLLLTAALFRTDIENEVEQNDDGTYSQYGKKRVEGYEISVAGNITPAWQVIGGYTQQKATIKNGKDVAQDGSSSLPYTPEHAFTLWSQYQATDDISVGAGARYIGSMHKGSDGAVGTPAFTEGYWVADAKLGYRVNRNLDFQLNVYNLFDTDYVASINKSGYRYHPGEPRTFLLTANMHF | – | – | – | – | 3.14 ± 0.17 | – | > 8 | > 16 | – | – | – | > 16
7 | MAQLKFNSILVVCTGNICRSPIGERLLRKRLPGVKVKSAGVHGLVKHPADATAADVAANHGVSLEGHAGRKLTAEMARNYDLILAMESEHIAQVTAIAPEVRGKTMLFGQWLEQKEIPDPYRKSQDAFEHVYGMLERASQEWAKRLSR [P0ACZ2] | 4.76 ± 0.95 | – | – | – | – | – | – | – | 2.72 | – | – | –
